US9738880B2, “Lysosomal protein targeting sequence and therapeutic applications of same” (Children's Hospital Medical Center, priority 2013, dated 2017)
Numbering of substitutions follows the chain as printed. Names may count otherwise. One block for each molecule: values may come before it.

Experiments:
[1] = biological target: T1, ldLIMP2 (Homo sapiens, UniProt Q14108); experiment: Fluorescence polarization binding of DSPIIV GCase peptides to ldLIMP-2; conditions: for binding to ldLIMP2 by change in fluorescence polarization (δmP), in words: ldLIMP2 fixed at 50 nM, peptide up to 250 nM, FIG. 7A
T1 construct: Purified luminal domain LIMP-2 (1d-LIMP2) was custom made (Sino Biological Inc., PRC.); purchased Sino Biological Inc
T1 sequence (Q14108 28-433 limits assumed): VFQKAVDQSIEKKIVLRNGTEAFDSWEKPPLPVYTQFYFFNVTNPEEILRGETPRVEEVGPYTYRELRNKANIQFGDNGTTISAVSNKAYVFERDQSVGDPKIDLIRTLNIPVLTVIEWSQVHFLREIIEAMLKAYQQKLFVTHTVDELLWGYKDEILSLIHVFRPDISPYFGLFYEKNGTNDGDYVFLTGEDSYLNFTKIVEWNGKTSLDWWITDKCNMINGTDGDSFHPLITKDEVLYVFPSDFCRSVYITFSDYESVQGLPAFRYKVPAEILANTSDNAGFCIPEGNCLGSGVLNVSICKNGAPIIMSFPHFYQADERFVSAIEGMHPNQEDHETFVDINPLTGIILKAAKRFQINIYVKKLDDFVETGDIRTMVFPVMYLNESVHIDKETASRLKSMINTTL
Protocol: FIG. 7A-FIG. 7C: Binding and competition of fluorescent labeled or unlabeled DSPIIV (SEQ ID NO 15) GCase peptides to ldLIMP2. The change (δmP) in fluorescence polarization is plotted on the ordinate and the increasing concentrations of the various peptides are on the abscissa. FIG. 7A depicts saturation kinetics under conditions in which the concentration of ldLIMP2 (50 nM) was fixed. […] FIG. 7B depicts a similar study using unlabeled peptides as competitors. […] Each of the unlabeled peptides “competed” with the labeled peptides in the expected ratios. FIG. 7C depicts a competition study in which labeled (WT*) and unlabeled (WT) peptides were used in complementary competition studies.
FIG. 9: Effect pH on binding WT and alanine substituted DSPIIV (SEQ ID NO 15) peptides to ldLIMP2. […] In comparison, incremental decreases were evident in ldLIMP2 binding at pH=6.8, the approximate pH of the ER/cis-Golgi, as follows: the triple mutant (ASPAAV) having the lowest binding (<10% of WT), the DSPAIV (SEQ ID NO 17) (I402A) and DSPIAV (SEQ ID NO 18) (I403A) mutants being intermediate (˜40-50% of WT), and ASPIIV (SEQ ID NO 16) (D399A) having the least change (˜50-60% of WT), relative to WT.
FIG. 12: Stoichiometry between ldLIMP2 and DSPIIV (SEQ ID NO 15). The peptide concentration giving 50% of maximal binding to ldLIMP2 (ordinate) and the concentration of ldLIMP2 (abscissa) have a 1:1 ratio.
Fluorescence Polarization: The DSPIIV (SEQ ID NO 15) and its mutants, and DDQRLLL (SEQ ID NO 14) peptides (FITC labeled or non-labeled) were synthesized (American Peptide Co., Vista, Calif.). Lyophilized peptides were solubilized in acetonitrile and then were diluted at least 10,000-fold into the reactions for fluorescence polarization assessments. The reactions were done at least in duplicate at various peptide and LIMP-2 concentrations (SpectraMax M5, Molecular Device). Fluorescence polarization data were collected and analyzed with SoftMax Pro 5.0 software. Reaction mixtures contained 100 mM phosphate, pH 6.8 and 1 mM DTT.

[2] = system: Gba1 null/null mouse fibroblasts; experiment: Immunofluorescence co-localization of expressed GCase constructs (lysosome vs ER/Golgi); assay type: cell-based; conditions: for Pearson Indices for co-localization to the lysosome, in words: DSPIIV variants, FIG. 10B; for co-localization to / retention in the ER/Golgi, in words: calnexin or calreticulin; for localization of GCase DSPIIV variants to the lysosome (Lamp1 / LIMP-2 co-localization), in words: transient transfection, FIG. 10A
Description: Immunofluorescence studies (IF): Mouse Gba1 null/null were used for the host cells for all transfection experiments. pCMV-AC-GFP Mammalian cell expression vector was used for expression of various GCases that included the TKD region (amino acids 407, 408 and 409) or the DSPIIV (SEQ ID NO 15) region (amino acids 399-404). Direct-labeled first antibodies were applied for IF detection; including anti-human GCase, -Calreticulin, -calnexin, -LIMP2, and -Lamp1. Lysotracker and ER tracker (Invitrogen) were also used as indicated. Analyses were done with a Zeiss AxioVert 200M with ApoTome. Co-localization analyses to obtain Pearson Indices were conducted using a module in the Axiovision 4.8 software.
Initial studies to localize the targeting peptide were conducted with GCase-GFP fusion constructs that had COOH-terminal deletions of GCase (FIG. 1). The constructs are designated as GCase-XX or XXX where the Xs represent the number of GCase amino acids deleted from the COOH-terminus. These constructs were transfected into and expressed in Gba1 null/null mouse fibroblasts using the CMV promoter (pCMV-AC-GFP or YFP) Immunofluorescence analyses using anti-human GCase IgG (green) and Lysotracker (Red) were used for colocalization of GCase to the lysosome (Red) or GCase (green) and Calreticulin or Calnexin (Red) for colocalization to the ER or Golgi (FIG. 2). […] Since LIMP-2 is the receptor for targeting of GCase to the lysosome, our working hypothesis was that the peptide sequence for binding of GCase to LIMP-2 was located within amino acids 347-422.

[3] = system: Gba1−/− cells; experiment: Proportion of GCase protein in cells and media; assay type: cell-based, mouse; conditions: for Total GCase: cellular + media; for Total GCase / Cellular GCase / Media GCase: mean ± SD, n = 3; for Cellular GCase / Media GCase: total ng
Description: (§1) FIG. 11A-FIG. 11C: Secretion and retention of GCase with alanine variants in the TDK (FIG. 11A) or DSPIIV (SEQ ID NO 15) (FIG. 11B and FIG. 11C) sequences. FIG. 11A depicts activities in the media of Gba1−/− fibroblasts following transient transfections of each of the specified alanine substituted GCases in the TDK region. […] FIG. 11B depicts in the Left Panel: Activities in the media following transient transfections of various DSPIIV (SEQ ID NO 15) alanine substituted GCases and the % of GCase secreted. The latter was calculated as {ng GCase (in media)/[ng GCase (in media)+ng (GCase in lysates)]}×100 (also see Table 2). […] The transfections alone (Null+lipo) had no effect. […] FIG. 11C deicts in cellular lysate GCase activities from the various alanine substituted GCases in the DSPIIV (SEQ ID NO 15) sequence as indicated. […] The doubly alanine substituted GCase had little intracellular activity, i.e., nearly all the GCase was secreted into the media.

[4] = system: Gba1−/− fibroblasts; experiment: GCase activity in media and cell lysates after transient transfection (secretion and retention); assay type: cell-based, mouse; conditions: cell lysates; FIG. 11C
Description: as §1
Enzyme Assays: Cell pellets were homogenized in 0.25% Na-taurocholate and 0.25% Triton X-100. GCase activities were determined fluorometrically with 4 mM 4MU-Glc in 0.2M/0.1M citric-phosphate, pH 5.6 (18, 54)

Molecule: ASPIIV
binding to ldLIMP2 by change in fluorescence polarization (δmP), in words [1]: little binding
decrease of binding to ldLIMP-2 ([1]; pH 6.8, FIG. 9): 30-40%
ldLIMP2 binding relative to WT peptide ([1]; pH 6.8, FIG. 9): 50-60 % of WT

B1: D399A: human GCase variant with D399A (ASPIIV sequence) (protein, UniProt P04062 40-536, looked up, variant D399A)
Lysosomal acid …: ARPCIPKSFGYSSVVCVCNATYCDSFDPPTFPALGTFSRYESTRSGRRMELSMGPIQANHTGTGLLLTLQPEQKFQKVKGFGGAMTDAAALNILALSPPAQNLLLKSYFSEEGIGYNIIRVPMASCDFSIRTYTYADTPDDFQLHNFSLPEEDTKLKIPLIHRALQLAQRPVSLLASPWTSPTWLKTNGAVNGKGSLKGQPGDIYHQTWARYFVKFLDAYAEHKLQFWAVTAENEPSAGLLSGYPFQCLGFTPEHQRDFIARDLGPTLANSTHHNVRLLMLDDQRLLLPHWAKVVLTDPEAAKYVHGIAVHWYLDFLAPAKATLGETHRLFPNTMLFASEACVGSKFWEQSVRLGSWDRGMQYSHSIITNLLYHVVGWTDWNLALNPEGGPNWVRNFVASPIIVDITKDTFYKQPMFYHLGHFSKFIPEGSQRVGLVASQKNDLDAVALMHPDGSAVVVVLNRSSKDVPLTIKDPAVGFLETISPGYSIHTYLWRRQ
Pearson Indices for co-localization to the lysosome, in words [2]: little co-localization to the lysosome
co-localization to / retention in the ER/Golgi, in words [2]: significant retention in the ER/Golgi
localization of GCase DSPIIV variants to the lysosome (Lamp1 / LIMP-2 co-localization), in words [2]: Essentially identical results
Total GCase [3]: 50 ± 4 ng
Cellular GCase [3]: 32 ± 4 ng
Media GCase [3]: 18 ± 2 ng

B2: I402A/I403A: human GCase double mutant I402A + I403A (DSPAAV sequence) (protein)
chain: B1 Lysosomal acid … with A399D, I402A, I403A
Pearson Indices for co-localization to the lysosome, in words [2]: little co-localization to the lysosome
co-localization to / retention in the ER/Golgi, in words [2]: significant retention in the ER/Golgi
localization of GCase DSPIIV variants to the lysosome (Lamp1 / LIMP-2 co-localization), in words [2]: Essentially identical results
GCase activity in cell lysates relative to WT [4]: < 5 % of WT
Total GCase [3]: 24 ± 4 ng
Cellular GCase [3]: 4 ± 1 ng
Media GCase [3]: 20 ± 3 ng

B3: Mouse WT: mouse wild type GCase (protein, UniProt P17439 20-515, looked up)
Lysosomal acid …: AQPCIPKSFGYSSVVCVCNASYCDSLDPVTLPALGTFSRYESTRRGRRMELSVGAIQANRTGTGLLLTLQPEKKFQKVKGFGGAMTDATALNILALSPPTQKLLLRSYFSTNGIEYNIIRVPMASCDFSIRVYTYADTPNDFQLSNFSLPEEDTKLKIPLIHQALKMSSRPISLFASPWTSPTWLKTNGRVNGKGSLKGQPGDIFHQTWANYFVKFLDAYAKYGLRFWAVTAENEPTAGLFTGYPFQCLGFTPEHQRDFISRDLGPALANSSHDVKLLMLDDQRLLLPRWAEVVLSDPEAAKYVHGIAVHWYMDFLAPAKATLGETHRLFPNTMLFASEACVGSKFWEQSVRLGSWDRGMQYSHSIITNLLYHVTGWTDWNLALNPEGGPNWVRNFVDSPIIVDIPKDAFYKQPMFYHLGHFSKFIPEGSQRVALVASESTDLETVALLRPDGSAVVVVLNRSSEDVPLTISDPDLGFLETVSPGYSIHTYLWRRQ
Total GCase [3]: 64 ± 7 ng
% Secreted ([3]; ng GCase in media / (ng in media + ng in lysates) × 100): 0%
Cellular GCase [3]: 64 ± 7 ng
Media GCase [3]: 0 ng

Further lines, results first:

binding to ldLIMP2 by change in fluorescence polarization (δmP), in words [1]: background changes
ldLIMP2 binding relative to WT peptide ([1]; pH 6.8, FIG. 9): < 10 % of WT
Molecule: ASPAAV [triple alanine mutant of the DSPIIV peptide]

binding to ldLIMP2 by change in fluorescence polarization (δmP), in words [1]: did not show saturation up to 250 nM
Molecule: DSPAIV

binding to ldLIMP2 by change in fluorescence polarization (δmP), in words [1]: did not show saturation up to 250 nM
Molecule: DSPIAV
